Residue numbers refer to the chain shown, from its start.
Experiments:
[1] = test system: human Gal3 full-length (Hu-Gal3-FL) and CRD domain (Hu-Gal3-CRD); test: IgG cross-reactivity ELISA on human Gal3; type: binding; settings: purified IgGs 15-20 μg/mL; FIG. 3
Protocol: (§1) Anti-Gal3 antibodies human/mouse cross-reactivity was tested by ELISA on human Gal3 full-length (Hu-Gal3-FL) and CRD domain (Hu-Gal3-CRD), and on murine Gal3 (m-Gal3-FL).
(§2) Hu-Gal3-FL, Hu-Gal3-CRD and m-Gal3-FL were immobilized at 3 μg/mL via their histidine tag on functionalized microplates. Purified IgGs were added into the wells (15-20 μg/mL final concentration) and detected with an anti-Fab.HRP antibody. A control rabbit antibody directed against Hu-Gal3 (Abcam ab53082 reference) was used at 5 μg/mL as antigen-coating positive control and detected with an anti-rabbit.HRP secondary antibody (7074S-Cell Signaling reference).

murine Gal3 (m-Gal3-FL) = molecular target: T1, murine Gal3 (m-Gal3-FL) (Mus musculus, UniProt P16110); test: IgG cross-reactivity ELISA on murine Gal3; type: binding; settings: purified IgGs 15-20 μg/mL; FIG. 3
T1 construct: Determination of Kd values on human and mouse full-length Gal3; purchased Novalix
Protocol: as §1, §2

Hu-Gal3-FL = molecular target: T2, Hu-Gal3-FL (Homo sapiens, UniProt P17931); test: ELISA dose-response EC50 on human Gal3; settings: ELISA binding on Hu-Gal3-FL
T2 construct: made in house
Protocol: (§3) To determine the half maximal effective concentration (EC50) of the antibodies, ELISA dose-response experiments were performed on Hu-Gal3-FL and on m-Gal3-FL.
(§4) Hu-Gal3-FL and m-Gal3-FL were immobilized at 3 μg/mL through their His-tag on functionalized microplates as before. A 3.3-fold serial dilution was carried-out with the purified IgGs, added to the wells containing immobilized Hu-Gal3-FL or m-Gal3-FL and detected with an anti-Fab.HRP antibody.
(§5) Human/mouse Gal3 EC50 ratio were estimated according to EC50 values (sigmoidal dose-response equation: Y=Bottom+X*(Top−Bottom)/(EC50+X)), a low ratio indicating a high cross-reactivity.

m-Gal3-FL = molecular target: T3, m-Gal3-FL (Mus musculus, UniProt P16110); test: ELISA dose-response EC50 on mouse Gal3; settings: ELISA binding on m-Gal3-FL
T3 construct: made in house
Protocol: as §3, §4, §5

[2] = test system: murine model of HOCI-induced fibrosis; test: HOCI-induced murine fibrosis model: skin thickness; type: in vivo, mice; settings: first experiment
Protocol: (§6) In a first experiment, control mice (n=12) received a daily intradermal injection of 300 μL of sterile phosphate buffer saline (PBS) for 5 consecutive days per week, for a duration of 42 days. HOCI alone and HOCI with antibody (HOCI-antibody) treated mice (n=12 per group) received a daily intradermal injection of 300 μL of HOCI for 5 consecutive days per week, for a duration of 42 days. Antibody-treated mice also received a subcutaneous injection of 20 mg/kg antibody, starting at day minus one and every 5 days between day 5 and day 40. Each antibody was solubilized in sterile, endotoxin-free PBS before injection. In a second experiment, the same protocol was applied, except that duration of the study was 63 days and antibodies were given every 7 days starting at day minus 1 until day 62.
(§7) Mice that received daily injection of HOCI were also treated by intratracheal instillation of 0.5 mg/kg of TD139 compound (HOCI-TD139), a small molecule Gal3 inhibitor. In a first experiment, the administrations started from day 21 and the compound was given every 3 days until day 39. In a second experiment, the administrations started from day 20 and the compound was given every 3 days until day 62. TD139 was initially dissolved in 100% DMSO then diluted 50-fold in endotoxin-free PBS before administration.
The evolution of skin thickness was monitored by using an external caliper, every seven days until sacrifice.

[3] = test system: murine model of HOCI-induced fibrosis; test: HOCI-induced murine fibrosis model: skin and lung collagen (Picrosirius red); type: in vivo, mice; settings: first experiment
Protocol: as §6, §7
At the day of study termination of the first experiment (day 42), skin and lung samples were taken, formalin-fixed and processed to individual paraffin wax blocks. Sections of skin and lung were cut from the blocks and, after rehydration, stained with Picrosirius Red coloration according to the manufacturer's protocol. Subsequently, each slide was examined and remotely analyzed employing the web-based Image J software

plasma IL-6 = test: HOCI-induced murine fibrosis model: plasma IL-6 (MSD); type: in vivo, mice; settings: first experiment, day 42; vs HOCI group; FIG. 9
Protocol: as §6, §7
(§8) In the first experiment, a mixed effect model with repeated measurements was performed on Control group, HOCI treated group, HOCI-antibody- and HOCI-TD139-treated groups. The impact of HOCI administration on plasma IL-6 and IL-5 levels was evaluated compared to the control group. The impact of antibody and TD139 treatments was compared to the HOCI group (FIG. 9). IL-6 and IL-5 were quantified by using the MSD technology from Mesoscale.

plasma IL-5 = test: HOCI-induced murine fibrosis model: plasma IL-5 (MSD); type: in vivo, mice; settings: first experiment, day 42; vs HOCI group; FIG. 9
Protocol: as §6, §7, §8

plasma Gal3 = test: HOCI-induced murine fibrosis model: plasma Gal3 (ELISA); type: in vivo, mice; settings: first experiment, day 42; FIG. 10
Protocol: as §6, §7
In the first experiment, the plasma levels of Gal3 were measured at day minus 1 (before antibody administration) and at termination day (day 42) using a mouse Galectin-3 DuoSet ELISA kit (R&D Systems, DY1197) according to the manufacturer's instructions. Plasma samples were diluted 1:200 in order to fit with the dynamic range of the assay.

[4] = test system: murine model of bleomycin-induced fibrosis; test: Bleomycin-induced murine lung fibrosis model: body weight and body weight metrics; type: in vivo, mice
Protocol: (§9) Control bleomycin mice named ‘Bleo’ received an administration of 1.65 mg/kg bleomycin by the oropharyngeal route on Day 1. […] Antibody-treated mice also received an administration of 1.65 mg/kg bleomycin by the oropharyngeal route on Day 1 and a subcutaneous injection of 20 mg/kg antibody, starting on day minus one and on days 4, 8, 12, 16 and 20. Each antibody was solubilized in sterile, endotoxin-free PBS before injection. Mice that received bleomycin were also treated by oropharyngeal administration of 0.5 mg/kg of TD139 compound (Bleo-TD139), a small molecule Gal3 inhibitor, starting on day 12 and every 2 days until day 20. TD139 was initially dissolved in 100% DMSO.
Mice were weighed daily. Their growth curves are represented on FIG. 12. Control mice had normal growth with a mean percent increase of 6.4% of their initial body weight measured on day minus 1.
Body weight metrics were assessed by using two parameters called Time to weight growth (TWG) and Time to baseline (TTB), shown on FIG. 13. Time to weight growth corresponds to the point of inflection when mice show an ascending growth curve and start to regain weight within the course of the experiment. Time to baseline corresponds to the number of days required for mice to recover their initial body weight (day minus 1). The median TWG was 10 days for the untreated bleomycin group. […] TD139 compound had no efficacy on this parameter (p-value 0.53).

[5] = test system: murine model of bleomycin-induced fibrosis; test: Bleomycin-induced murine lung fibrosis model: Modified Ashcroft fibrosis score; type: in vivo, mice
Protocol: as §9
Mice were submitted for terminal euthanasia on day 21. The lungs were collected for histopathological examination and gravity inflation-fixed with 10% neutral buffered formalin (NBF) before being immersion fixed in NBF.
Sections were taken and then placed on three slides as indicated by the code numbers on FIG. 14.
Three longitudinal sections parallel to and bisecting the main stem bronchus were trimmed from the left lung and right caudal lung lobes and mounted in cassettes 01 and 02, respectively. The right cranial, middle and accessory lung lobes were sectioned longitudinally and mounted in cassette 03. All sections were stained with picrosirius red and scored in a blinded manner by a certified veterinary pathologist using the Modified Ashcroft fibrosis score (0-8), where “0” corresponds to “normality (no fibrosis) and “8” corresponds to the highest possible fibrosis score, as described by Hübner et al. (2008) but based on assessment across the whole section of lung.

rat model of ARDS [6] = test: Rat ARDS model (LPS challenge): neutrophils counts in BALF; type: in vivo; settings: antibodies 14 mg/kg x3 prior to LPS; dexamethasone 10 mg/kg oral; vs LPS group; FIG. 16
Protocol: (§10) Positive control rats received 3 doses of sterile phosphate buffer at day minus 11, minus 6 and minus 1 prior LPS challenge (0.25 mg/kg by subcutaneous route at day 1). Negative control rats received one oral dose of Dexamethasone at 10 mg/kg (dissolved in 0.5% carboxymethyl cellulose in deionized water) 2 hours prior LPS challenge (0.25 mg/kg by subcutaneous route at day 1). LPS (lipopolysaccharide) causes an acute inflammatory response, whereas dexamethasone has anti-inflammatory effects thus being the reference treatment in this model.
(§11) Antibody-treated rats received 3 doses of antibodies (14 mg/kg) at day minus 11, minus 6 and minus 1 prior to LPS challenge (0.25 mg/kg by subcutaneous route at day 1). Each antibody was solubilized in sterile PBS before injection.
(§12) Control rats of the experiment received 3 doses of sterile phosphate buffer at day minus 11, minus 6 and minus 1 without LPS challenge at day 1.
(§13) The impact of anti-Gal3 antibody treatment in LPS challenged rats were evaluated by quantification of neutrophils in Bronchoalveolar Lavage Fluid and compared to the positive control group (LPS challenge with PBS treatment) (FIG. 16). […] Neutrophils numeration levels were decreased after treatment with anti-inflammatory dexamethasone.

rat model of ARDS [7] = test: Rat ARDS model (LPS challenge): total BALF protein (BCA assay); type: in vivo; settings: antibodies 14 mg/kg x3 prior to LPS; dexamethasone 10 mg/kg oral; vs LPS group; FIG. 17
Protocol: as §10, §11, §12
as §13, with “proteins (by BCA assay)” for “neutrophils”, “BALF” for “Bronchoalveolar Lavage Fluid”, “17). The presence of protein in BALF reflects the damage to the air-blood barrier.” for “16).”, “Total BALF protein” for “Neutrophils”

plasma TNF alpha = test: Rat ARDS model (LPS challenge): plasma TNF alpha (MSD); type: in vivo; settings: 4 h following LPS challenge; vs LPS group; FIG. 18
Protocol: as §10, §11, §12
For all rats, plasma sampling was performed 4 h following LPS challenge.
The impact of anti-Gal3 antibody treatment in LPS challenged rats were evaluated on plasma cytokine levels, namely TNF alpha and KC-GRO cytokines, and compared to the positive control group (LPS challenge with PBS treatment) (respectively FIG. 18A and FIG. 18B). TNF alpha and KC-GRO were quantified by using the MSD technology from Mesoscale.

T2 sequence (P17931 whole entry): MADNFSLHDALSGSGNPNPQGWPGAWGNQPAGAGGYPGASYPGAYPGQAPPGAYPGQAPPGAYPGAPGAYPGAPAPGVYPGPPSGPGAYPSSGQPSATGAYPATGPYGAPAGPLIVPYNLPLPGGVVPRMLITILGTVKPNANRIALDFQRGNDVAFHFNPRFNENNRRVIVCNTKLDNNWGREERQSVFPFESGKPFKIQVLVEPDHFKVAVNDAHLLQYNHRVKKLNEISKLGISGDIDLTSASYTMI
T1 sequence (P16110 whole entry): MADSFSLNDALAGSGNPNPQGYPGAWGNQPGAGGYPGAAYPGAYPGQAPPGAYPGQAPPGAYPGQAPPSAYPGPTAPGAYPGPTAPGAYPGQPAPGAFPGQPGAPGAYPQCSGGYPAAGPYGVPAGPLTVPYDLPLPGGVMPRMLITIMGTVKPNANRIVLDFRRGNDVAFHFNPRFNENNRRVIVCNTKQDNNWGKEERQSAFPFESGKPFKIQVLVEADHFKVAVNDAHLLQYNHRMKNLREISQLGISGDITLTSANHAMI
T3 sequence (P16110 whole entry): as above
human Gal3 full-length (Hu-Gal3-FL) and CRD domain (Hu-Gal3-CRD), sequence (P17931 118-250 limits assumed): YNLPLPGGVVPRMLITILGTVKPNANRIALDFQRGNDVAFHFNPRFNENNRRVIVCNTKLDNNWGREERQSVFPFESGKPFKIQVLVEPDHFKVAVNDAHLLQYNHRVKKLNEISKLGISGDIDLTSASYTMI

B1: B12: anti-Gal3 monoclonal antibody, IgG1 format; VH SEQ ID NO 54, VL SEQ ID NO 55 (antibody, V domains shown)
VH: EVQLVESGGSLVKPGGSLRLSCAASGFTFSNDDMNWVRQAPGKGLEWISSIDGSSRSIYYADFVKGRFTISRDNAKNSLYLQMNSLRAEDTAVYYCVRSSGYSGGGMDVWGRGTLVTVSS
VL: QSVLTQPASVSGSPGQSITISCAGTSSDVGGSYNVAWYQQHPGKAPKLMIYSDSYRPSGVSNRFSGSKSGNTASLTISGLQAEDEADYYCSSYTSNSARVFGGGTKLEIK
modifications: IgG1 constant region
- IgG binding to human Gal3 (Hu-Gal3-FL, Hu-Gal3-CRD) by ELISA [1]: Lower binding signals
- IgG binding to murine Gal3 (m-Gal3-FL) by ELISA (murine Gal3 (m-Gal3-FL)): Lower binding signals
- hGal3 EC50 (Hu-Gal3-FL): too high to be determined
- mGal3 EC50 (m-Gal3-FL): too high to be determined

B2: D11: anti-Gal3 monoclonal antibody, IgG1 format; VH SEQ ID NO 40, VL SEQ ID NO 41 (antibody, V domains shown)
VH: EVQLVESGGSLVKPGGSLRLSCAASGFTFSNYNMNWVRQAPGKGLEWISSIYGSSRYIYYADFVKGRFTISRDNAKNSLYLQMNSLRAEDTAVYYCVRSSYGGMDVWGRGTLVTVSS
VL: B1 VL with S52Y, S95G, N96Y, A98T
modifications: IgG1 constant region
- HOCI-induced increase in skin thickness ([2]; 42 days, antibody 20 mg/kg s.c., TD139 0.5 mg/kg intratracheal, vs HOCI group, FIG. 7A): significantly reduced
- day from which reduction of skin thickness was significant ([2]; sustained effect until day 42): 21 days
- lung collagen levels ([3]; day 42, FIG. 8A): restored lung collagen levels to those of control mice
- skin collagen levels ([3]; day 42, vs HOCI group, FIG. 8B): significantly reduced
- plasma IL-6 levels (plasma IL-6): significantly decreased the plasma IL-6 levels to values similar to those of control mice
- plasma IL-5 levels (plasma IL-5): decreased significantly
- plasma Gal3 levels (plasma Gal3): restored the plasma Gal3 levels to values similar to those of the control group
- reduction of median Time to baseline (TTB) ([4]; median TTB 20 days for untreated bleomycin group, FIG. 13): 2.7 days
- reduction of median Time to weight growth (TWG) ([4]; median TWG 10 days for untreated bleomycin group, FIG. 13): 1.3 days
- mean percent weight increase on day 21 compared to day minus 1 ([4]; untreated bleomycin group +1.9%, control mice 6.4%): 4.4%
- frequency of animals with fibrosis score of 2 ([5]; day 21, 7.4% in untreated bleomycin group): 17.8%
- frequency of animals with fibrosis score of 3 ([5]; day 21, 43.2% for bleo group): 61.1%
- frequency of animals with fibrosis score of 4 ([5]; day 21, 44.4% in bleo group): 20%
- neutrophils counts in BALF (rat model of ARDS [6]): also decreased
- total BALF protein (rat model of ARDS [7]): also decreased
- TNF alpha plasma levels (plasma TNF alpha): also decreased, displaying an intermediary profile

B3: E12: anti-Gal3 monoclonal antibody, IgG1 format; VH SEQ ID NO 56, VL SEQ ID NO 57 (antibody, V domains shown)
VH: B2 VH with N33A, Y57S, S100N, Y101N, G102A
VL: B1 VL with S32Y, N34D, A36S, S52Y, N96Y, A98T
- IgG binding to murine Gal3 (m-Gal3-FL) by ELISA (murine Gal3 (m-Gal3-FL)): much lower on the m-Gal3 than on the Hu-Gal3-FL and Hu-Gal3-CRD
- hGal3 EC50 (Hu-Gal3-FL): too high to be determined
- mGal3 EC50 (m-Gal3-FL): too high to be determined

From patent US20250215091A1, “Anti-GAL3 Antibodies and Compositions” (Les Laboratoires Servier, priority 2022, published 2025)
